Data taken from patent publication US20240294622A1 (SUZHOU TRANSCENTA THERAPEUTICS, published 2024).

T1: HGREM1-His (ACRO) (human, UniProt O60565 25-184)
T1 construct: Lys25-Asp184 of NP_037504 with C-terminal polyhistidine tag (ACRO GR1-H52H3); they are put here; also called hGREM1 (ACRO); human gremlin (ACRO)
T1 sequence: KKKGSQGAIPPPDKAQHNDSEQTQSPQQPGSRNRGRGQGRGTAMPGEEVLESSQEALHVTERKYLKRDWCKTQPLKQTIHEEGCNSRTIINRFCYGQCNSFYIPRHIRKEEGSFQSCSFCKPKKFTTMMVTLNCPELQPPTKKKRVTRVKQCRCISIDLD

T2: XM5-Fc (human (hGREM1 with residues 123-143 …))
T2 construct: also called gremlin 1-DAN fusion protein
T2 chain: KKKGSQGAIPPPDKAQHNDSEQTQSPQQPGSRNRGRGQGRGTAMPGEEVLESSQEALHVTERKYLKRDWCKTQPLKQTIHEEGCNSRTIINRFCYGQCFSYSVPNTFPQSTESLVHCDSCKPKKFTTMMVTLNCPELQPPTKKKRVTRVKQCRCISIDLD


Experiments:
HGREM1-His (ACRO) [1] = molecular target: T1, HGREM1-His (ACRO); assay: ELISA, coated hGREM1 (ACRO)
HGREM1-His (ACRO) [2] = molecular target: T1, HGREM1-His (ACRO); assay: blocking ELISA, Human Gremlin-1 binding to BMP4; column OD450
Method: In addition, the ability of serial dilutions of antibodies provided herein to block Gremlin binding to human BMP2/4/7 was also examined via ELISA. Plates were coated with recombinant human BMP2/4/7 (0.5 μg/ml) overnight and then serial dilutions of antibodies were incubated with 1 μg/ml of human Gremlin-his modified for 1 h at RT before this complex was added to coated plates and allowed to incubate for an additional hour at RT. The plates were then washed and added with anti-his HRP (GenScript). Plates were then developed with a TMB solution and stopped by adding stop solution. The plates were read on a plate reader at 450 nm. […] The chimeric anti-gremlin 1 antibodies (69H5-chi) and chimeric anti-gremlin 1 antibodies (22F1-chi) also can inhibit the binding of gremlin to BMP2 and BMP4 (see, FIG. 3E and FIG. 3F). The chimeric anti-gremlin 1 antibodies (56C11-chi) can inhibit the binding of gremlin to BMP2 (see, FIG. 3E).

HGREM1-His (ACRO) [3] = molecular target: T1, HGREM1-His (ACRO); assay: blocking ELISA, Human Gremlin-1 binding to FGFR1
Method: Next, 0.25 μg/ml of gremlin was selected to test the blocking activity. The ability of antibodies to block Gremlin binding to human FGFR1-Fc was examined via ELISA. Plates were coated with recombinant FGFR1-Fc (2 μg/ml) overnight and then serial dilutions of antibodies were incubated with 0.25 μg/ml of human Gremlin-his modified for 1 h at RT before this complex was added to coated plates and allowed to incubate for an additional hour at RT. The plates were then washed and added with anti-his HRP (GenScript). Plates were then developed with a TMB solution and stopped by adding stop solution. The plates were read on a plate reader at 450 nm. […] Humanized anti-GREM1 antibodies provided herein (e.g., Hu14E3, Hu22F1) are expected to show the similar technical effect as their chimeric counterparts in blocking the binding of hGREM1 to FGFR1.

XM5-Fc = molecular target: T2, XM5-Fc; assay: ELISA on coated XM5-Fc (column XM5)
Method: Binding affinities to hGREM1 and XM5 were also compared. Briefly, XM5-Fc or Gremlin-his […] was coated. 100 μl of block solution consisting of PBS+1% BSA+1% normal goat serum+0.5% Tween 20 (Sigma) was added to each well and incubated at room temperature for 2 hours. 4-fold serial antibody dilution from 2 μg/ml were added. Afterward the plates were washed three times with 200 ul of PBS+0.1% Tween20 followed by adding 100 μl/well 1:10000 Goat anti mouse IgG-HRP (abeam), and incubate for 1 hour at room temperature. They were then washed 3× with PBS+0.1% Tween20. Finally, 100 μl/well of TMB (InnoReagents) was added to each well and after 2 minutes add 50 ul of stop solution to each well. The plates were read on a Multiscan FC microplate reader (Thermo Scientific) at […]. The EC50 values were show in table below.

Row | EC50 (HGREM1-His (ACRO) [1]) | IC50 (HGREM1-His (ACRO) [2]) | IC50 (HGREM1-His (ACRO) [3]) | EC50 (XM5-Fc) | Binder
1 | 0.0136 µg/mL | – | – | – | 14E3 (antibody, V domains shown, mouse hybridoma antibody; also called hybridoma 14E3; anti-gremlin1 antibody 14E3) VH: QIQLVQSGPELKKPGETVKISCKTSGSTFTTYGMAWMKQAPGKGLTWMGWINTLSGEPTYADDFKGRFAFSLKTSANTAYLQINNLKNEDAATYFCAREPMDYWGQGTSVIVSS VL: not shown
2 | 0.00587 µg/mL | 0.512 µg/mL | 1.84 µg/mL | 0.00692 µg/mL | 36F5 (antibody, V domains shown, mouse hybridoma antibody; also called hybridoma 36F5) VH: QVQLQQSGAELARPGASVKLSCKASGYSFTSSGIGWVKQRSGQGLEWIGEIYPRSGNTYNNEKFKGKATLTADKSSSTVYMELRSLTSEDSAVYFCVREAYSHHYYAMDYWGQGTSVTVFS VL: DVLMTQTPLSLPVSLGGQASISCRSSQSLLHSNGNTYLEWYLQKPGQSPKLLIYKVSNRFSGVPDRLSGSGSGTDFTLKISRVEAEDLGVYYCFQGSHVPFTFGSGTKLEIN
